Our source for the K d, fold lower than that of B4-H4 2F9 and EC50 values is patent publication CN116917323A.

Assay [1] has as its target T1, 重组人B7-H4蛋白(R&D Systems#6576-B7-050) (human) (UniProt Q7Z7D3).
T1 sequence (looked up): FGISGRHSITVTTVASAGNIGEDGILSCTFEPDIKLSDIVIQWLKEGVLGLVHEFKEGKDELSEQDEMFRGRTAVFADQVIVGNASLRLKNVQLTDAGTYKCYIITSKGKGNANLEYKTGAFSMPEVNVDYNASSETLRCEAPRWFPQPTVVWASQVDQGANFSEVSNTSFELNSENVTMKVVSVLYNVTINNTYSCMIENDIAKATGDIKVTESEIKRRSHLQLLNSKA
The assay is described as follows: BLI (Octet), antibody on anti-human Fc sensor, recombinant human B7-H4 as analyte, 25 °C.

In assay [2] the target is T2, 人B7-H4 (细胞表面B7-H4) (human) (UniProt Q7Z7D3).
T2 sequence (looked up): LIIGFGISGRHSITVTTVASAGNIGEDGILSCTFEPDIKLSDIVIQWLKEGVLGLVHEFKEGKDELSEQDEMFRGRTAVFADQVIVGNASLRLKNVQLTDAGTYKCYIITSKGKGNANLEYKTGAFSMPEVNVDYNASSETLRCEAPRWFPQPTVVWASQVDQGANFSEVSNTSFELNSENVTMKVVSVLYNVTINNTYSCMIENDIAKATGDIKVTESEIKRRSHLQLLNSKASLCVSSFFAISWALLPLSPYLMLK
The assay is described as follows: flow cytometry on MX-1 cells.

Assay [3] concerns the target T2, 人B7-H4 (细胞表面B7-H4) (human). Nature of the assay: flow cytometry on HCC1569 cells. On the technique in general: Flow cytometry measures light scatter and fluorescence of single cells or particles in a stream.

B1: 1D11抗体 (antibody, from another filing, V domains shown)
VH: QVQLQQSGAELVRPGTSVKMSCKASGYTFTSYWIGWAKQRPGHGFEWIGDIYPGGGYTNYNEKFKGKATLTADKSSSTAYMQFSSLTSEDSAIYYCARLDGSSYRGAMDSWGQGTSITVSS
VL: DIQMTQSPSSLSASLGGKVTITCKASQGFNKYVAWYQHKPGQCPRLLIHYTSTLQPGIPARFSGSGSGRDYSFSISNLEPEDSATYFCLQYGNLLYAFGGGTKLEIKR
Turning to B1, in assay [1], the K d, fold lower than that of B4-H4 2F9 is above 100 fold. Also, the EC50 in assay [2] amounted to 4.9 nM; in assay [3], 3.44 nM.

By EC50 is commonly meant the concentration that produces a half-maximal response. Read a low EC50 as an effect from little substance.
